The values below come from paper PMC4540782, “Latent and active aurone synthase from petals of C. grandiflora: a polyphenol oxidase with unique characteristics” (Planta, 2015).

In data set [1] the target is T1, latent recombinant cgAUS1 (pro-cgAUS1) (Coreopsis grandiflora, UniProt A0A075DN54).
T1 construct: heterologously expressed latent pro-enzyme with C-terminal shielding domain
T1 sequence (A0A075DN54 86-602): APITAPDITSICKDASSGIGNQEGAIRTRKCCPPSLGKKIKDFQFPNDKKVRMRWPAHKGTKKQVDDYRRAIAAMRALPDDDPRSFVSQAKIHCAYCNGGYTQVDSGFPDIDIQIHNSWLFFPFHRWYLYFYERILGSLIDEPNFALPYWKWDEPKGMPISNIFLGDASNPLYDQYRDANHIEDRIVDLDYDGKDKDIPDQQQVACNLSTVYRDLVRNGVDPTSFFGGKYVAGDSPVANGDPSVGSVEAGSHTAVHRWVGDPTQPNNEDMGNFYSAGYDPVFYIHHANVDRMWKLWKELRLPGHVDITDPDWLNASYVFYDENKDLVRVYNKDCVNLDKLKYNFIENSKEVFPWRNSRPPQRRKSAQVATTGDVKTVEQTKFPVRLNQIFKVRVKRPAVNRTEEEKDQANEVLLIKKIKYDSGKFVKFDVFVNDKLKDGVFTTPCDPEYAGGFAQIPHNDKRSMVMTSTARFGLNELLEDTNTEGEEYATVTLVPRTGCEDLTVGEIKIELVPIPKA
The data set is described as follows: spectrophotometric pH profile. In kind it is biochemical. Particulars: 25 µM butein, 125 mM sodium citrate, pH 3.5 to 7.4; no allosteric activation.

Data set [2] has as its system T2, CC(C)(C)c1ccc(O)c(O)c1.
T2 construct: main core API-IENSKE plus disulfide-linked C-terminal peptide D438-G452; partly phosphorylated or sulfated at Tyr230
The data set is described as follows: purified protein. In kind it is biochemical, Coreopsis grandiflora. The settings on record: pH 5.5, suicide substrate.

Data set [3] deals with T3, Cc1ccc(O)c(O)c1.
T3 construct: main core API-IENSKE plus disulfide-linked C-terminal peptide D438-G452; partly phosphorylated or sulfated at Tyr230
The data set is described as follows: purified protein. It counts as biochemical, Coreopsis grandiflora. Particulars: pH 5.5, suicide substrate.

Data set [4] has as its system T4, O=C(/C=C/c1ccc(O)c(O)c1)c1ccc(O)cc1O.
T4 construct: main core API-IENSKE plus disulfide-linked C-terminal peptide D438-G452; partly phosphorylated or sulfated at Tyr230
The data set is described as follows: purified protein. In kind it is biochemical, Coreopsis grandiflora. The settings on record: pH 5.5, diphenolase, butein to sulfuretin.

Data set [5] concerns T5, Oc1ccccc1O.
T5 construct: main core API-IENSKE plus disulfide-linked C-terminal peptide D438-G452; partly phosphorylated or sulfated at Tyr230
In words: purified protein. In kind it is biochemical, Coreopsis grandiflora. The settings on record: pH 5.5.

Consider `O=C(/C=C/c1ccc(O)c(O)c1)c1ccc(O)cc1O` [Butein], for which the “spectrophotometric pH profile” value in data set [1] is “pH optimum of recombinant pro-cgAUS1 (filled triangle, dashed lines) and active cgAUS1”.
In general, Km refers to the concentration of substrate that gives half-maximal velocity. Usually Vmax stands for the rate approached at saturating substrate. For orientation: kcat means the maximal rate divided by the concentration of active sites. In general, kcat/Km refers to the turnover number divided by the Michaelis constant. In the case of “active cgAUS1 (aurone synthase), sample 1 (Coreopsis grandiflora; DEL436-522)”, in data set [2], the Km is 504 ± 20 µM, the Vmax was 2260 ± 23 µmol/min/mg and the kcat came to 1560 ± 16 s⁻¹. In data set [3], the Km was determined as 3110 ± 120 µM, the maximal velocity (Vmax) turned out to be 2300 ± 39 µmol/min/mg, the kcat was found to be 1590 ± 27 s⁻¹ and the kcat/Km was 512000 ± 22000 M⁻¹ s⁻¹. In addition, in data set [4], the Michaelis-Menten constant (Km) turned out to be 52 ± 3 µM, the maximal velocity (Vmax) stood at 489 µmol/min/mg, the kcat is 464 ± 16 s⁻¹ and the kcat/Km amounted to 8.93e+06 ± 649000 M⁻¹ s⁻¹. Besides, in data set [5], the Km is 4040 ± 690 µM, the kcat was determined as 869 ± 41 s⁻¹ and the specificity constant (kcat/Km) amounted to 215000 ± 38000 M⁻¹ s⁻¹.
